Results: patent US20240124597A1 (Bristol-Myers Squibb, published 2024)

Tests used:
[1] = target: T1, human-CD40-monomer protein (human, UniProt P25942 21-193, limits assumed); assay: SPR, purified Ab captured on protein A, hCD40 monomer 500-3.9 nM, 37 C, 1:1 Langmuir fit
T1 construct: Soluble monomer generated in house, used as SPR analyte; also called hCD40; hCD40-monomer
Description: (§1) Based on the sequences, titer, and SPR binding data, antibodies were selected for larger scale expression, purification, and further characterization. SPR analysis using purified antibodies was performed by capturing antibodies on a protein A surface, with binding of a 500-3.9 nM (2:1) dilution series of human-CD40 monomer, at either 25° C. or 37° C. in PBS-T pH 7.1 buffer; the titration data was fit to a 1:1 Langmuir model.
(§2) SPR data are fit to a 1:1 Langmuir model using BIAcore™ T200 evaluation software to obtain values for the association rate constant (ka), dissociation rate constant (kd) and dissociation constant (KD).

[2] = target: T1, human-CD40-monomer protein; assay: SPR, Ab captured on protein A, hCD40 monomer 500 and 50 nM, 1:1 fit; supernatant
Description: Titer analysis was performed using Biolayer Interferometry (BLI) on an Octet RED instrument (Fortebio) by capturing antibodies from supernatant using protein A sensor tips and measuring capture response with respect to a standard curve obtained using a control antibody sample. SPR data were obtained by capturing antibodies on a protein A surface and testing the binding of 500 nM and 50 nM injections of human-CD40 analyte, using a BIAcore™ T200 instrument (GE Healthcare). The kinetic data for the two concentrations of hCD40-monomer were fit to a 1:1 Langmuir model, to yield estimates of the kinetic and affinity values for these interactions, and for comparison of the different molecules.

[3] = target: human CD40 on cells (tonsillar B cells, immature dendritic cells, Ramos-Blue cells) (human, UniProt P25942 21-277); assay: cell-based or functional assay
Chain of human CD40 on cells (tonsillar B cells, immature dendritic cells, Ramos-Blue cells) (P25942 21-277 limits assumed): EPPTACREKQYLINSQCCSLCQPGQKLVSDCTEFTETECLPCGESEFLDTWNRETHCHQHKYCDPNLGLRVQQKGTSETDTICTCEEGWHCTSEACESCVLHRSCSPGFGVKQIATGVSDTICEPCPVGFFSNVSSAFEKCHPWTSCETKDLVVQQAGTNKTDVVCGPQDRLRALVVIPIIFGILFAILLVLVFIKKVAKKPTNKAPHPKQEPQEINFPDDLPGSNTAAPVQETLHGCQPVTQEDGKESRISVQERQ

[4] = target: T1, human-CD40-monomer protein; assay: SPR, purified Ab captured on protein A, hCD40 monomer 500-3.9 nM, 25 C, 1:1 Langmuir fit
Description: as §1, §2

T1 sequence (P25942 21-193 limits assumed): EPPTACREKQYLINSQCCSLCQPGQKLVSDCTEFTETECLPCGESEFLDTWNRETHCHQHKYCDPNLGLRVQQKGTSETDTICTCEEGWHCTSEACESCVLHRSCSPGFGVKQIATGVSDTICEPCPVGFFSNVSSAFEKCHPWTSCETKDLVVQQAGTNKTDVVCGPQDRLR

- Kd [1]: 10.9 nM
- koff [1]: 0.0057 s⁻¹
- kon [1]: 520000 M⁻¹ s⁻¹
- Kd [2]: 4.7 nM
- koff [2]: 0.0011 s⁻¹
- kon [2]: 240000 M⁻¹ s⁻¹
- Inhibition of B cell proliferation induced by soluble CD40L trimer, Average (IC50 ng/ml) [3]: 6 ng/mL
- Kd [4]: 4.4 nM
- koff [4]: 0.0013 s⁻¹
- kon [4]: 290000 M⁻¹ s⁻¹
B1: Y12XX-hz40-P238K (antibody, human IgG1, kappa, V domains shown)
VH: QVQLVQSGAEVKKPGSSVKVSCKASGYAFTSYWMHWVRQAPGQGLEWMGQINPSQGRSQYNEKFKTRVTITADKSTSTAYMELSSLRSEDTAVYYCARWGLQPFAYWGQGTLVTVSS
VL: EIVMTQSPATLSVSPGERATLSCKASQDVSTAVAWYQQKPGQAPRLLIYSASYRYTGIPARFSGSGSGTEFTLTISSLQSEDFAVYYCQQHYSTPWTFGGGTKVEIKR
notes: also called Vh-hz12;Vk-hz3
